Test results: the nanobody polyreactivity screen of Harvey et al. (2022)

assay: yeast display, Sf9 membrane polyspecificity reagent, FACS + sequencing; frameworks hold sequencing errors
In short: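 After 36–48 hours of galactose induction, yeast (Saccharomyces cerevisiae BJ5465) displaying a synthetic nanobody library were stained at 4 °C for 1 hour with 10% biotinylated, detergent-solubilized Sf9 membrane reagent. Streptavidin microbeads enriched the stained cells before FACS sorting into low and high (top ~1%) gates on anti-HA and streptavidin fluorescence. Each clone's polyreactivity label reflects its gate of origin.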

Sequence | polyreactivity (PSR sort gate)
QVQLVESGGGLVQAGGSLRIRCAASGSIFWYNAMGWYRQAPGKERELVAAISYRGGSTYYADSVKGRFTISRDNAKNTVYLQMNSLKPEDTAVYYCAAEYGDVYVWTYDYWGQGTQVTVSS | high polyreactivity
QVQLVESGGGLVQAGGSLRISCAASASIFPQYALGWYRQAPGKERELVAGISGSGGGTYYADSVKGRFTISRDNAKNTVSVQIHSLKPEDTAVYYCYDYWRQGTQVTVSS | low polyreactivity
QVQLVESGGGLVQAGGSLRISCAASDAMGWYRQAPGKERELVASISNGVSTNYADSVKGRFTISRDNAKNTVYLQMNSLKPEDTAVYYCAADAKTVGRDDLYWYEVEFDYWGQGTQVNVSS | low polyreactivity
QVQLVESGGGLVQAGGSLRISCAASGFAFSYYAMGWYRQAPGKEREFVASIDWSGGSTYYADSVKGRFTISRDNAKNTVYLQMNSLKPEDTAVYYCAAELDYFPGYDYWGQGTQVTVSS | low polyreactivity
QVQLVESGGGLVQAGGSLRISCAASGFIFEQYAMGWYRQAPGKERELVARISWRGGSTYYADSVKGRFTISRDNAKNTVYLQMNSLKPEDTAVYYCAADVYTRFWRVYRFDYWGQGTQVTVSS | low polyreactivity
QVQLVESGGGLVQAGGSLRISCAASGFIFKVYAMGWYRQAPGKERELVAAITSSGGSTYYADSVKGRFTISRDNAKNTVYLQMNSLIPEDTAVYYCAAQFPGVYYYIYDYWGQGTQVTVSS | high polyreactivity
QVQLVESGGGLVQAGGSLRISCAASGFIFVTYAMGWYRQAPGKERELVAAITNSGGTTYYADSVKGRFTISRDNAKNTVYLQMNSLKPEDTAVYYCNKPYGAETAHREFDYWGQGTQVTVSS | low polyreactivity
QVQLVESGGGLVQAGGSLRISCAASGFTFDTNAMGWYRQAPGKERELVAAISRIGGRTYADSVKGRFTISRDNAKNTVYLQMNSLKPEDTAVYYCADDRSSAYRWRSAGYYKYDYWGQGTQVTVSS | low polyreactivity
QVQLVESGGGLVQAGGSLRISCAASGFTFKAYAMGWYRLAPGKERELVAAITKSGGRTFYADSVKGRFTISRDNAKNTVYLQMNSLKPEDTAVYYCAASYTVYYWGQGTQVTVSS | high polyreactivity
QVQLVESGGGLVQAGGSLRISCAASGFTFNANAMGWYRQAPGNERELVAAISLSGGRTYYADSVKGRFTISRDNAKNTVYLQMNSLKPEDTAVYYCAASPDGSFRRFSRVVSGDYWGQGTQVTVSS | high polyreactivity
QVQLVESGGGLVQAGGSLRISCAASGFTFNKYAMGWYRQAPGKERELVAALTVSGSRTYYADSVKGRFTISRDNAKNTVYLQMNSLKPEDTAVYYCAARKWYYYLRPWTSVGGYYWGQGTQVTVSS | high polyreactivity
QVQLVESGGGLVQAGGSLRISCAASGFTFVSNDMGWYRQAPGKERELVAAISQGGGSTYYADSVKGRFTISRDNAKNTVYLQMNSLKPEDTAVYYCAADIWARYYFWGFEHDYWGQGTQVTVSS | low polyreactivity
QVQLVESGGGLVQAGGSLRISCAASGFTSTYYAMGWYRPAPGTERELVAAITSSGTRTYYADSVKGRFTISRDIAKKTGYLQMNSLKPEDTAVYYCNASHRKGMYYWGLGTQVTVSS | high polyreactivity
QVQLVESGGGLVQAGGSLRISCAASGFTYRKNAMGWDRQAPGKERELVAAITQSSGRTYYADTVKGRFTISRDNAKNTVYLQMNSLKPEDTAVYYCAARGVWPEYDYWGQGTQVNVSS | low polyreactivity
QVQLVESGGGLVQAGGSLRISCAASGGTFLYYAMGWYRQAPGKERELVAAISRGGSTHYADSVKGRFTISRDNAKNTVYLQMNSLKPEDTAVYYCAVDGGEFSSYGYWGQGTQVTVSS | low polyreactivity
QVQLVESGGGLVQAGGSLRISCAASGIIFPQYTMGWYRPAPGKERELVAVITSGGSTYYADSVKGRFTISRDNAKNTVYLQMNSLNPEDTAVYYCAAETETYWWTFITREYDYWGQGTQVTVSS | high polyreactivity

Sequence | polyreactivity (PSR sort gate)
QVQLVESGGGLVQAGGSLRISCAASGIIFYTYVMGWYRQAPGKEREFVAGISTSGGRTDYADSVKGRFTISRDNAKNTVYLQMNSLKPEDTAVYYCNADYWQWYSYWYDYWGQGTQVTVSS | high polyreactivity
QVQLVESGGGLVQAGGSLRISCAASGINFSVNAMGWYRQAPGKERELVAAITYSGGSTYYADSVKGRFTISRDNAKNTVYLQMNSLKPEDTAVYYCAAETYSSGEWYDYWGQGTQVTVSS | high polyreactivity
QVQLVESGGGLVQAGGSLRISCAASGITFVYYDMAWYRQAPGKDSELVAAISGGGSTNYADSVKGRFTISRDNAKNTVYLQRKSLKPEDTAVYYCNAELYYGDEGDSWGQGTLVTVSS | low polyreactivity
QVQLVESGGGLVQAGGSLRISCAASGITFYRYAMGWYRQAPGKEREFVAAINYGGSSTRYADSVKGRFTISRDNAKITVYLQMNSLKPEDTAVYYCAKVELARVEYDYWGQGTQVTVSS | low polyreactivity
QVQLVESGGGLVQAGGSLRISCAASGLTFFRNAIGWYRQATGKERELVATITSTSSTNYADSVKVRFTISRDNSKNTVYLQMNSLKPEDTAVYYCAARTVGRKAGFDYWGQGTQVTVSS | high polyreactivity
QVQLVESGGGLVQAGGSLRISCAASGLTFQYNAMGWYRQAPGKERELVAAISSSGGSTYYADSVKGRFTISRDNAKNTVYLQMNSLKPEDTAVYYCNAYSQSWNFYGDGDYWVQGTQVTVSS | low polyreactivity
QVQLVESGGGLVQAGGSLRISCAASGNTVNDYTMGWYRQEPGKERELVAAIRSGGRTYYADSVKGRFTISRDNAKNTVYLQMNSLKPEDTAVYYCAALAVTYRYDYWGQGTQVTVSS | high polyreactivity
QVQLVESGGGLVQAGGSLRISCAASGRIFARNAMGSYRQAPGKERELVATIRVGGGSTYYADSVTGRFTISRDNAKNTVYLQMNSLKPEDTSVYYCAVRQLYSYPGDRRGYYWGQGTQVTVSS | low polyreactivity
QVQLVESGGGLVQAGGSLRISCAASGRIFRVNGMGWSRQEPGKESELVAAIRRSGGSTYYADSVKGRFTISRDYAKKSVYLQMNSLKPEDTAVYFCAAAVRQSSYTRYDSWGQGTQVTVSS | high polyreactivity
QVQLVESGGGLVQAGGSLRISCAASGRIFSGYAMGWYRQAPGKERELVAAITSGGSTNYADSVKGRFTISRDNAKNTVYLQMNSLKPEDTAVYYCAADSREVSTTAYYYWGQGTQVTVSS | low polyreactivity
QVQLVESGGGLVQAGGSLRISCAASGRILARNAMGWYRQAPGKERDLVATITWTDGSTYYADSVKGRFTISRDNAKNTVYLQMNSLKPEDTAVYYCDADLPGYWLPTVPKNYGDYWGQGTQVTVSS | low polyreactivity
QVQLVESGGGLVQAGGSLRISCAASGRTFARYAMGWYRQAPGKERELVAAISRSGSTYYADSVKGRFTISRDNAKNTVYLQMNSLKPEDTAVYFCAKDTRFAGSYKYYYWGQGTQVTVSS | high polyreactivity
QVQLVESGGGLVQAGGSLRISCAASGRTFGRYAMEWYRQAPGKERELVAAISWSGGSTYYADSVKGRFTISRDNAKNTVYLQMNSLKPEATAVYYCAAVTTDGVYAFDYWGQGTQVTVSS | low polyreactivity
QVQLVESGGGLVQAGGSLRISCAASGRTFLSNAMGWYRQAPGKERELVAAISNGDNTYYADSVKGRFTISRDNAKNTVYLQMNSLKPEDTAVYYCAADQYWSWIYYPVVEYDYWGQGTQVTVSS | low polyreactivity
QVQLVESGGGLVQAGGSLRISCAASGRTFWYYAKGWDRQAPGKEREFVAAISWSGGSTYYADSVKGRFTISRDNAKNTVYLQMNSLKPEDTAVSYCAADRYDSSQFYYWGQGTQVTVSS | low polyreactivity
QVQLVESGGGLVQAGGSLRISCAASGRTFYSYAMGWYRQAPGKERELVAAITWRASTYYADSVKGRFTISRDNAKNTVYLQMNSLKPEDTAVYYCAVRDYRPRYYTFLYNSPYDYWGQGTQVTVSS | high polyreactivity
